Experimental data reported in US20230257473A1 (TENEOBIO, published 2023).

Key:
[1] = molecular target: BCMA on BCMA-expressing cells (H929 / NCI-H929, MM1.S, U266, Daudi) (human) (UniProt Q02223); test: flow cytometry on MM1.S cells; antibody 0.098 ng/ml
[2] = molecular target: BCMA on BCMA-expressing cells (H929 / NCI-H929, MM1.S, U266, Daudi) (human) (UniProt Q02223); test: flow cytometry on MM1.S cells; antibody 0.781 ng/ml
[3] = molecular target: BCMA on BCMA-expressing cells (H929 / NCI-H929, MM1.S, U266, Daudi) (human) (UniProt Q02223); test: flow cytometry on MM1.S cells; antibody 6.250 ng/ml
[4] = molecular target: BCMA on BCMA-expressing cells (H929 / NCI-H929, MM1.S, U266, Daudi) (human) (UniProt Q02223); test: flow cytometry on H929 cells; antibody 100.000 ng/ml
[5] = molecular target: BCMA on BCMA-expressing cells (H929 / NCI-H929, MM1.S, U266, Daudi) (human) (UniProt Q02223); test: flow cytometry on MM1.S cells; antibody 25.000 ng/ml
[6] = molecular target: BCMA on BCMA-expressing cells (H929 / NCI-H929, MM1.S, U266, Daudi) (human) (UniProt Q02223); test: flow cytometry on MM1.S cells; antibody 50.000 ng/ml
[7] = molecular target: BCMA on BCMA-expressing cells (H929 / NCI-H929, MM1.S, U266, Daudi) (human) (UniProt Q02223); test: flow cytometry on MM1.S cells; antibody 100.000 ng/ml
[8] = molecular target: BCMA on BCMA-expressing cells (H929 / NCI-H929, MM1.S, U266, Daudi) (human) (UniProt Q02223); test: flow cytometry on MM1.S cells; antibody 200.000 ng/ml
[9] = molecular target: recombinant BCMA (R&D Systems, catalog no. 193-BC) (human) (UniProt Q02223); test: competitive ELISA, plate-bound BCMA; Ab 0.020 ng/mL; competitor APRIL 0.00 ng/mL
[10] = molecular target: recombinant BCMA (R&D Systems, catalog no. 193-BC) (human) (UniProt Q02223); test: competitive ELISA, plate-bound BCMA; Ab 0.020 ng/mL; competitor APRIL 7.81 ng/mL
[11] = molecular target: recombinant BCMA (R&D Systems, catalog no. 193-BC) (human) (UniProt Q02223); test: competitive ELISA, plate-bound BCMA; Ab 0.200 ng/mL; competitor APRIL 0.00 ng/mL
[12] = molecular target: recombinant BCMA (R&D Systems, catalog no. 193-BC) (human) (UniProt Q02223); test: competitive ELISA, plate-bound BCMA; Ab 0.200 ng/mL; competitor APRIL 7.81 ng/mL
[13] = molecular target: recombinant BCMA (R&D Systems, catalog no. 193-BC) (human) (UniProt Q02223); test: competitive ELISA, plate-bound BCMA; Ab 2.000 ng/mL; competitor APRIL 7.81 ng/mL
[14] = molecular target: recombinant BCMA (R&D Systems, catalog no. 193-BC) (human) (UniProt Q02223); test: competitive ELISA, plate-bound BCMA; Ab 0.002 ng/mL; competitor APRIL 62.50 ng/mL
[15] = molecular target: recombinant BCMA (R&D Systems, catalog no. 193-BC) (human) (UniProt Q02223); test: competitive ELISA, plate-bound BCMA; Ab 0.020 ng/mL; competitor APRIL 15.63 ng/mL
[16] = molecular target: recombinant BCMA (R&D Systems, catalog no. 193-BC) (human) (UniProt Q02223); test: competitive ELISA, plate-bound BCMA; Ab 0.020 ng/mL; competitor APRIL 62.50 ng/mL
[17] = molecular target: recombinant BCMA (R&D Systems, catalog no. 193-BC) (human) (UniProt Q02223); test: competitive ELISA, plate-bound BCMA; Ab 0.200 ng/mL; competitor APRIL 62.50 ng/mL
[18] = molecular target: recombinant BCMA (R&D Systems, catalog no. 193-BC) (human) (UniProt Q02223); test: competitive ELISA, plate-bound BCMA; Ab 20.000 ng/mL; competitor APRIL 0.00 ng/mL
[19] = molecular target: recombinant BCMA (R&D Systems, catalog no. 193-BC) (human) (UniProt Q02223); test: competitive ELISA, plate-bound BCMA; Ab 0.002 ng/mL; competitor APRIL 125.00 ng/mL
[20] = molecular target: recombinant BCMA (R&D Systems, catalog no. 193-BC) (human) (UniProt Q02223); test: competitive ELISA, plate-bound BCMA; Ab 0.002 ng/mL; competitor APRIL 250.00 ng/mL
[21] = molecular target: recombinant BCMA (R&D Systems, catalog no. 193-BC) (human) (UniProt Q02223); test: competitive ELISA, plate-bound BCMA; Ab 0.200 ng/mL; competitor APRIL 125.00 ng/mL
[22] = molecular target: recombinant BCMA (R&D Systems, catalog no. 193-BC) (human) (UniProt Q02223); test: competitive ELISA, plate-bound BCMA; Ab 0.200 ng/mL; competitor APRIL 500.00 ng/mL
[23] = molecular target: recombinant BCMA (R&D Systems, catalog no. 193-BC) (human) (UniProt Q02223); test: competitive ELISA, plate-bound BCMA; Ab 2.000 ng/mL; competitor APRIL 250.00 ng/mL
[24] = molecular target: recombinant BCMA (R&D Systems, catalog no. 193-BC) (human) (UniProt Q02223); test: competitive ELISA, plate-bound BCMA; Ab 20.000 ng/mL; competitor APRIL 31.25 ng/mL
[25] = molecular target: recombinant BCMA (R&D Systems, catalog no. 193-BC) (human) (UniProt Q02223); test: competitive ELISA, plate-bound BCMA; Ab 200.000 ng/mL; competitor APRIL 7.81 ng/mL
[26] = molecular target: recombinant BCMA (R&D Systems, catalog no. 193-BC) (human) (UniProt Q02223); test: competitive ELISA, plate-bound BCMA; Ab 20.000 ng/mL; competitor APRIL 500.00 ng/mL

Chain of BCMA on BCMA-expressing cells (H929 / NCI-H929, MM1.S, U266, Daudi) (human) (Q02223 whole entry): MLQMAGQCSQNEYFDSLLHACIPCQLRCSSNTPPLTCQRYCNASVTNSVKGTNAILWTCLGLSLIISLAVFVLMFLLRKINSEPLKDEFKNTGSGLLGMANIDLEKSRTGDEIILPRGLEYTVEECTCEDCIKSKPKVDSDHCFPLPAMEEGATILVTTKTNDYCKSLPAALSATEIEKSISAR
Chain of recombinant BCMA (R&D Systems, catalog no. 193-BC) (human) (Q02223 5-51 limits assumed): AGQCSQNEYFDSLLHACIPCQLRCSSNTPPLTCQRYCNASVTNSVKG

B1: AntiX**BCMA_F7E_F7E (bispecific antibody, part only; not given: other chains of three-chain format, not shown: another chain or arm of the molecule)
tandem VH: QVQLVESGGGLVQPGGSLRLSCVASGFTFSSNAMSWVRQAPGKGLEWVSAISGSGDYTHYSDSVKGRFTISRDNSKNTLYLQMNSLRAEDTAVYYCAKEVPGGPLVDFDSRGQGTLVTVSSGGGGSGGGGSQVQLVESGGGLVQPGGSLRLSCVASGFTFSSNAMSWVRQAPGKGLEWVSAISGSGDYTHYSDSVKGRFTISRDNSKNTLYLQMNSLRAEDTAVYYCAKEVPGGPLVDFDSRGQGTLVTVSS
- MFI [1]: 1960
- MFI [2]: 2010
- MFI [3]: 2110
- MFI [4]: 20900
- MFI [5]: 2340
- MFI [6]: 2930
- MFI [7]: 4140
- MFI [8]: 7340
- A450-A570 [9]: 0.057
- A450-A570 [10]: 0.0578
- A450-A570 [11]: 0.0676
- A450-A570 [12]: 0.0577
- A450-A570 [13]: 0.108
- A450-A570 [14]: 0.0569
- A450-A570 [15]: 0.0584
- A450-A570 [16]: 0.0577
- A450-A570 [17]: 0.0595
- A450-A570 [18]: 0.648
- A450-A570 [19]: 0.0607
- A450-A570 [20]: 0.0607
- A450-A570 [21]: 0.0651
- A450-A570 [22]: 0.0603
- A450-A570 [23]: 0.0921
- A450-A570 [24]: 0.828
- A450-A570 [25]: 2.47
- A450-A570 [26]: 0.253

B2: anti-BCMA heavy chain-only antibody (UniAb) with the VH of SEQ ID NO: 12 (antibody, V domains shown)
VH: QVQLVESGGGLVQPGGSLRLSCVASGFTFSSNAMSWVRQAPGKGLEWVSAISGSGDYTHYSDSVKGRFTISRDNSKNTLYLQMNSLRAEDTAVYYCAKEVPGGPLVDFDSRGQGTLVTVSS
notes: Heavy chain-only antibody from UniRat; also called Clone ID No: 316302
- MFI [1]: 2040
- MFI [2]: 2060
- MFI [3]: 2130
- MFI [4]: 7560
- MFI [5]: 2130
- MFI [6]: 2180
- MFI [7]: 2440
- MFI [8]: 3180
- A450-A570 [9]: 0.063
- A450-A570 [10]: 0.0631
- A450-A570 [11]: 0.0708
- A450-A570 [12]: 0.0643
- A450-A570 [13]: 0.0895
- A450-A570 [14]: 0.067
- A450-A570 [15]: 0.0614
- A450-A570 [16]: 0.0629
- A450-A570 [17]: 0.0631
- A450-A570 [18]: 0.466
- A450-A570 [19]: 0.066
- A450-A570 [20]: 0.0647
- A450-A570 [21]: 0.0643
- A450-A570 [22]: 0.0745
- A450-A570 [23]: 0.0837
- A450-A570 [24]: 0.418
- A450-A570 [25]: 2.51
- A450-A570 [26]: 0.112
